# In article PMC10163058:
# How the values were obtained:
# [1] = biological target: paired immunoglobulin-like receptor B (PirB), expressed on CHO cells (mouse) (UniProt P97484)
# [2] = biological target: paired immunoglobulin-like receptor B (PirB), expressed on CHO cells (mouse) (UniProt P97484); remark: listed apart in the source
# [3] = biological target: His6-tagged recombinant PirB (Abcam #ab276923) (mouse) (UniProt P97484); experiment: atomic force microscopy (single-molecule force spectroscopy); His6-PirB held on Ni2+-NTA gold-coated model surfaces; AFM tips functionalised with T3SA- virions or σ3 through a PEG linker; virus buffer; koff from Bell-Evans fit of dynamic force spectroscopy, kon from binding probability against contact time (pseudo-first-order), KD calculated from both
Substance,"decrease in infection of primary murine cortical neurons (endogenous PirB) by T3SA+ (100 PFU/cell) after incubation with 5 μg/ml PirB-specific mAb 6C1, IFA [1]",tyrosine phosphorylation of immunoprecipitated myc-tagged PirB in CHO cells after T3SA+ adsorption (immunoblot with pTyr-specific mAb cocktail) [2],Kd [3],koff [3],kon [3]
reovirus strain T3SA+ virions (from UniProt P03528 1-455; P07939 1-365) (complex),50%,> 3 fold,–,–,–
reovirus strain T3SA- virions (from UniProt P03528 1-455; P07939 1-365) (complex),–,–,1.94 nM,0.2 s⁻¹,1.03e+08 M⁻¹ s⁻¹
